Test [1] has as its target T1, 4H346-bH.
T1 chain: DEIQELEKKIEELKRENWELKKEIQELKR
Kind of test: two-hybrid library CCNG1.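 Also: natural log of median RNA to DNA barcode read ratio; higher means stronger binding.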

Test [2] addresses T2, 4H3926-bH.
T2 chain: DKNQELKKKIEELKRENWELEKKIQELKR
Nature of the test: two-hybrid library CCNG1.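 Also: natural log of median RNA to DNA barcode read ratio; higher means stronger binding.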

Test [3] addresses T3, 4H4073-bH.
T3 chain: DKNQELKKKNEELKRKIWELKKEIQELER
Kind of test: two-hybrid library CCNG1.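 Also: natural log of median RNA to DNA barcode read ratio; higher means stronger binding.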

For test [4], the target named is T4, 4H457-bH.
T4 chain: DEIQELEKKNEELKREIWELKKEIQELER
Nature of the test: two-hybrid library CCNG1.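 Also: natural log of median RNA to DNA barcode read ratio; higher means stronger binding.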

Test [5] has as its target T5, 4H575-bH.
T5 chain: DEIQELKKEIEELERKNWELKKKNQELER
Kind of test: two-hybrid library CCNG1.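 Also: natural log of median RNA to DNA barcode read ratio; higher means stronger binding.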

Test [6] concerns the target T6, 4H683-bH.
T6 chain: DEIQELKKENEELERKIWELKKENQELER
Kind of test: two-hybrid library CCNG1.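 Also: natural log of median RNA to DNA barcode read ratio; higher means stronger binding.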

Test [7] concerns the target T7, 4H754-bH.
T7 chain: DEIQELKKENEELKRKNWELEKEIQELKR
Nature of the test: two-hybrid library CCNG1.

For test [8], the target named is T8, 4H780-bH.
T8 chain: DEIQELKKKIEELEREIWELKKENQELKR
Nature of the test: two-hybrid library CCNG1.

Test [9] has as its target T9, 4H797-bH.
T9 chain: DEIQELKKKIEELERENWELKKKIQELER
Kind of test: two-hybrid library CCNG1.

Test [10] concerns the target T10, 4H850-bH.
T10 chain: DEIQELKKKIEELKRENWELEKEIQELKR
Kind of test: two-hybrid library CCNG1.

In test [11] the target is T11, 4H855-bH.
T11 chain: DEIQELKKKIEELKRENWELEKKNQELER
Kind of test: two-hybrid library CCNG1.

Test [12] addresses T12, 4H918-bH.
T12 chain: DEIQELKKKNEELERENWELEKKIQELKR
Nature of the test: two-hybrid library CCNG1.

For test [13], the target named is T13, 4H953-bH.
T13 chain: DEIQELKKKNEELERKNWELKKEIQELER
Kind of test: two-hybrid library CCNG1.

Test [14] deals with T14, 4H968-bH.
T14 chain: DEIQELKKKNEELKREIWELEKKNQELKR
Kind of test: two-hybrid library CCNG1.

The target of test [15] is T15, 4H3427-bH.
T15 chain: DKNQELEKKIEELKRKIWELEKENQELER
Kind of test: two-hybrid library CCNG1.

Test [16] addresses T16, 4H3782-bH.
T16 chain: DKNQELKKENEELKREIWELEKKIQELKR
Kind of test: two-hybrid library CCNG1.

For test [17], the target named is T17, 4H3855-bH.
T17 chain: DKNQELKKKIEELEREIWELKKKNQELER
Nature of the test: two-hybrid library CCNG1.

Test [18] addresses T18, 4H4001-bH.
T18 chain: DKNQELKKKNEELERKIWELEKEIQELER
Nature of the test: two-hybrid library CCNG1.

In test [19] the target is T19, 4H454-bH.
T19 chain: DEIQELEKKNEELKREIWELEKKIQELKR
Nature of the test: two-hybrid library CCNG1.

For test [20], the target named is T20, 4H568-bH.
T20 chain: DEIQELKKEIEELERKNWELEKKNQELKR
Kind of test: two-hybrid library CCNG1.

Test [21] has as its target T21, 4H607-bH.
T21 chain: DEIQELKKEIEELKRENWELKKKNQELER
Nature of the test: two-hybrid library CCNG1.

The target in test [22] is T22, 4H687-bH.
T22 chain: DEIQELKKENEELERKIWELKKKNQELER
Nature of the test: two-hybrid library CCNG1.

The target in test [23] is T23, 4H717-bH.
T23 chain: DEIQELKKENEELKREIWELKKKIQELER
Nature of the test: two-hybrid library CCNG1.

Test [24] addresses T24, 4H72-bH.
T24 chain: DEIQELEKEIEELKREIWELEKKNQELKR
Nature of the test: two-hybrid library CCNG1.

For test [25], the target named is T25, 4H780-bN.
T25 chain: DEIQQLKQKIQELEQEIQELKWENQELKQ
Nature of the test: two-hybrid library CCNG1.

The target of test [26] is T26, 4H883-bH.
T26 chain: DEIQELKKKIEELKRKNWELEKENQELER
Nature of the test: two-hybrid library CCNG1.

Test [27] deals with T27, 4H908-bH.
T27 chain: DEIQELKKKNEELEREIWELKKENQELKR
Kind of test: two-hybrid library CCNG1.

In test [28] the target is T28, 4H967-bH.
T28 chain: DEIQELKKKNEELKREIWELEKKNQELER
Nature of the test: two-hybrid library CCNG1.

For test [29], the target named is T29, 4H3905-AA.
T29 chain: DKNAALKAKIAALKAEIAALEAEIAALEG
Kind of test: two-hybrid library CCmax.

The target of test [30] is T30, 4H4038-AA.
T30 chain: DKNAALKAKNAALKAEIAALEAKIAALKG
Nature of the test: two-hybrid library CCmax. The following applies: mean of both orientations.

The target in test [31] is T31, 4H43-AA.
T31 chain: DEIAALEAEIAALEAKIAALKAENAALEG
Kind of test: two-hybrid library CCmax. Particulars: mean of both orientations.

In test [32] the target is T32, 4H451-AA.
T32 chain: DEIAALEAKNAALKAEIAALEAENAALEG
Kind of test: two-hybrid library CCmax. Particulars: mean of both orientations.

Test [33] has as its target T33, 4H510-AA.
T33 chain: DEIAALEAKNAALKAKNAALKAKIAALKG
Kind of test: two-hybrid library CCmax. The following applies: mean of both orientations.

Test [34] deals with T34, 4H_APH.
T34 chain: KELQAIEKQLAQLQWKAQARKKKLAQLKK
Kind of test: two-hybrid library CCmax. The following applies: mean of both orientations.

For test [35], the target named is T35, 4H_BCR.
T35 chain: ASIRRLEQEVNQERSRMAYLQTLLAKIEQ
Nature of the test: two-hybrid library CCmax. Particulars: mean of both orientations.

The target of test [36] is 4H_GCN4. Nature of the test: two-hybrid library CCmax.
Sequence of 4H_GCN4 (chain, as listed by the source): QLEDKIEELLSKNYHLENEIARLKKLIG
Test [37] concerns the target GCN2_T. Nature of the test: two-hybrid library CCmax.
In test [38] the target is T36, O11-AA.
T36 chain: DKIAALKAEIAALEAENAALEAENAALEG
Nature of the test: two-hybrid library CCmax. Particulars: mean of both orientations.

The target of test [39] is T37, O13-AA.
T37 chain: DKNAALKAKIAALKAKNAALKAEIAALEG
Nature of the test: two-hybrid library CCmax. The following applies: mean of both orientations.

The target of test [40] is T38, O14-AA.
T38 chain: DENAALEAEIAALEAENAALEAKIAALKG
Nature of the test: two-hybrid library CCmax. Particulars: mean of both orientations.

Turning to DEIQELEKKIEELKRENWELKKEIQELKR [4H346-bH], the interaction score in [1] is 0.99; in [2], 1.28; in test [3], -0.154; in test [4], 0.311; in [5], -0.18; in test [6] it was -1.17. The interaction score in [7] is -0.0538; in test [8], 0.0507; in [9], 0.329; in [10], -3.53; in [11] it was 0.532; in [12], -3.17. Moreover, the results for the interaction score in [13] and in test [14] were 0.155 and -0.466, respectively.
In the case of DKNQELEKKIEELKRKIWELEKENQELER [4H3427-bH], the interaction score in test [15] was 1.13; in test [1] it was -1.08; in [16], -0.106; in test [17], 0.0459; in [2], -0.169; in [18], 0.717. In addition, the interaction score was 0.194 in test [3]; -0.546 in test [19]; -0.153 in [4]; -1.66 in [20]; 1.53 in test [5]; -1.37 in [21]. The interaction score in [6] was -0.937; in test [22], -0.309; in [23] it was -0.417; in test [24] it was -0.0186; in test [7] it was -0.851; in test [8], 0.188. In addition, the interaction score in test [25] is -0.425; in test [9], -0.726; in test [11], -0.0661; in test [26] it was -1.42; in test [27] it was -0.797; in test [12], -0.345. The interaction score is -2.3 in test [13], -1.41 in [28] and -0.828 in [14].
As to DKNAALKAKIAALKAEIAALEAEIAALEG [4H3905-AA], the interaction score in test [29] was 1.48; in [30] it was -0.568; in test [31], 0.782; in [32], -1.34; in test [33] it was -1.37; in test [34], -1.84. Besides, the interaction score in [35] was -1.61; in [36] it was -1.53; in test [37], -1.53; in test [38], -1.04; in test [39], 0.128; in test [40] it was 0.881.
